Experimental data taken from patent US20220283175A1 (ENCODIA, published 2022).
No end group written: not given here. *: point of attachment. Benzoyl(4-SO2NH2) = NS(=O)(=O)c1ccc(C(=O)*)cc1; M65 = not defined here; M67 = not defined here; M75 = not defined here; M76 = not defined here; M88 = not defined here

B1: (SAB)AAAAE (peptide)
peptide: {Benzoyl(4-SO2NH2)}-AAAAE-NH2
SMILES: C[C@H](NC(=O)c1ccc(S(N)(=O)=O)cc1)C(=O)N[C@@H](C)C(=O)N[C@@H](C)C(=O)N[C@@H](C)C(=O)N[C@@H](CCC(=O)O)C(N)=O
B2: (SAB)HAAAE (peptide)
peptide: {Benzoyl(4-SO2NH2)}-HAAAE-NH2
SMILES: C[C@H](NC(=O)[C@H](C)NC(=O)[C@H](Cc1c[nH]cn1)NC(=O)c1ccc(S(N)(=O)=O)cc1)C(=O)N[C@@H](C)C(=O)N[C@@H](CCC(=O)O)C(N)=O
B3: (SAB)AFAAE (peptide)
peptide: {Benzoyl(4-SO2NH2)}-AFAAE-NH2
SMILES: C[C@H](NC(=O)c1ccc(S(N)(=O)=O)cc1)C(=O)N[C@@H](Cc1ccccc1)C(=O)N[C@@H](C)C(=O)N[C@@H](C)C(=O)N[C@@H](CCC(=O)O)C(N)=O
B4: (SAB)LAAAE (peptide)
peptide: {Benzoyl(4-SO2NH2)}-LAAAE-NH2
SMILES: CC(C)C[C@H](NC(=O)c1ccc(S(N)(=O)=O)cc1)C(=O)N[C@@H](C)C(=O)N[C@@H](C)C(=O)N[C@@H](C)C(=O)N[C@@H](CCC(=O)O)C(N)=O
B5: (SAB)EAAAE (peptide)
peptide: {Benzoyl(4-SO2NH2)}-EAAAE-NH2
SMILES: C[C@H](NC(=O)[C@H](C)NC(=O)[C@H](CCC(=O)O)NC(=O)c1ccc(S(N)(=O)=O)cc1)C(=O)N[C@@H](C)C(=O)N[C@@H](CCC(=O)O)C(N)=O
B6: (SAB)FAAAE (peptide)
peptide: {Benzoyl(4-SO2NH2)}-FAAAE-NH2
SMILES: C[C@H](NC(=O)[C@H](C)NC(=O)[C@H](Cc1ccccc1)NC(=O)c1ccc(S(N)(=O)=O)cc1)C(=O)N[C@@H](C)C(=O)N[C@@H](CCC(=O)O)C(N)=O
B7: (SAB)SAAAE (peptide)
peptide: {Benzoyl(4-SO2NH2)}-SAAAE-NH2
SMILES: C[C@H](NC(=O)[C@H](C)NC(=O)[C@H](CO)NC(=O)c1ccc(S(N)(=O)=O)cc1)C(=O)N[C@@H](C)C(=O)N[C@@H](CCC(=O)O)C(N)=O

Target: T1, wild-type human carbonic anhydrase II (hCAII) protein (human, UniProt P00918 4-259)
Assay: cell-based or functional assay

Question: With M65-AAEIR (not fully specified; printed as M65-AAEIR; reading uncertain) [M65-AAEIR] as the binder, how does the “NTM-AAEIR IC50 (µM), colorimetric IC50 assay” value (“NTM-AAEIR IC50 (µM)” for short) read?
Answer: Its value is 0.515 µM.

Question: With M88-AAEIR (not fully specified; printed as M88-AAEIR; reading uncertain) [M88-AAEIR] as the binder, how does the “NTM-AAEIR IC50 (µM)” value read?
Answer: The value was 0.095 µM.

Question: M75-AAEIR (not fully specified; printed as M75-AAEIR; reading uncertain) [M75-AAEIR] was tested. Which “NTM-AAEIR IC50 (µM)” value did it give?
Answer: The value was 0.067 µM.

Question: How did the “NTM-AAEIR IC50 (µM)” value turn out when M76-AAEIR (not fully specified; printed as M76-AAEIR; reading uncertain) [M76-AAEIR] was run?
Answer: The value was 0.077 µM.

Question: For M67-AAEIR (not fully specified; printed as M67-AAEIR; reading uncertain) [M67-AAEIR], which “NTM-AAEIR IC50 (µM)” value is on record?
Answer: Its value is 0.073 µM.

Target: T1, wild-type human carbonic anhydrase II …
Assay: cell-based or functional assay
Remark: another data set of the same source

Question: With B1 as the binder, how does the “IC50 (µM), hCAII functional assay” value read?
Answer: Its value is 0.0484 µM.

Question: How did the “IC50 (µM), hCAII functional assay” value turn out when B2 was run?
Answer: The value was 0.148 µM.

Question: With B3 as the binder, how does the “IC50 (µM), hCAII functional assay” value read?
Answer: Its value is 0.183 µM.

Question: Which “IC50 (µM), hCAII functional assay” value does the source give for B4 here?
Answer: The value was 0.0284 µM.

Question: With B5 as the binder, how does the “IC50 (µM), hCAII functional assay” value read?
Answer: The value was 0.0993 µM.

Question: Which “IC50 (µM), hCAII functional assay” value does the source give for B6 here?
Answer: Its value is 0.045 µM.

Question: Which “IC50 (µM), hCAII functional assay” value does the source give for B7 here?
Answer: The value was 0.153 µM.

Target: T1, wild-type human carbonic anhydrase II …
Assay: cell-based or functional assay
Remark: another data set of the same source

Question: How did the “P2 dependence: fold difference of IC50 (SABA-AF against SABA-AA)” value turn out when B3 was run?
Answer: Its value is about 4 fold.
